Reference: patent US20230063965A1 (YEDA RESEARCH AND DEVELOPMENT, published 2023)

Key:
hFcγRIIA R131 = target: T1, hFcγRIIA R131 (human, UniProt P12318 34-218, limits assumed); test: SPR, immobilized FcγRs, soluble IgGs
T1 construct: R131 allotype as printed (131 is mature-protein numbering)
T1 sequence (looked up): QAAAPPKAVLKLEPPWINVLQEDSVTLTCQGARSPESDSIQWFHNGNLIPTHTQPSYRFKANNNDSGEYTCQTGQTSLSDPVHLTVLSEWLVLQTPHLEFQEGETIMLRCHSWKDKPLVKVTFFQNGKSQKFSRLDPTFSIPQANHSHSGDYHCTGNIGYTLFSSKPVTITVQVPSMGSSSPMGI

hFcγRIIB [1] = target: T2, hFcγRIIB (human, UniProt P31994 43-217, limits assumed); test: SPR, immobilized FcγRs, soluble IgGs
T2 construct: also called CD32B; huFcγRIIB
T2 sequence (looked up): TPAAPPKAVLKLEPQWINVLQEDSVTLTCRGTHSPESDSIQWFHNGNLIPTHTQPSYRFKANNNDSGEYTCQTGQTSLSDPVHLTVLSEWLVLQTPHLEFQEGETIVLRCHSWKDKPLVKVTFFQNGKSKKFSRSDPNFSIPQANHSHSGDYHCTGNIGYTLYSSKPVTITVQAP

[2] = target: T3, hFcγRII^F158 (so in the source); read as hFcγRIIIA F158) (human, UniProt P08637 17-208); test: SPR, immobilized FcγRs, soluble IgGs
T3 construct: The head is printed 'hFcγRII^F158'; also called huFcγRIIIA
T3 sequence (P08637 17-208 limits assumed): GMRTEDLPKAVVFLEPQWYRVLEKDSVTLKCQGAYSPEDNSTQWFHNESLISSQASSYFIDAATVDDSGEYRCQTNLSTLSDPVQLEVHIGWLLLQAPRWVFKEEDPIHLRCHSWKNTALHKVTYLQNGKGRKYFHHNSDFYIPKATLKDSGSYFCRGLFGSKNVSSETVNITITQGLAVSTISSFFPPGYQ

[3] = target: T4, human FcγRIIIA soluble ectodomain (ELISA) (human, UniProt P08637 17-208); test: FcγR binding ELISA, plate-bound human FcγRIIIA soluble ectodomain, serially diluted IgG, Δabsorbance 450 nm; panel FcgR3A
T4 construct: extracellular domain
T4 sequence (P08637 17-208): as the sequence (P08637 17-208 limits assumed) above
Experimental: (§1) ELISA plates (Nunc) were coated overnight at 4° C. with recombinant PD-L1 (1 μg/mL/well). All sequential steps were performed at room temperature in 2% BSA. After being washed, the plates were blocked for 1 hr with 1×PBS with 2% Bovine serum Albumin and were subsequently incubated for 1 hr with serially diluted IgGs. After washing, plates were incubated for 1 hr with HRP-conjugated anti-mouse IgG (Jackson ImmunoResearch). Detection was performed by TMB Soluble Reagent (ScyTek Laboratories) and reactions stopped with the addition of 0.18 M sulfuric acid. Absorbance at 450 nm was immediately recorded using a SpectraMax Plus spectrophotometer (Molecular Devices) and background absorbance from negative control samples was subtracted. […] After washing, plates were incubated for 1 hr with streptavidin-HRP (Jackson ImmunoResearch). (2) For FcγR binding ELISA, human FcγRs soluble ectodomains (2 μg/ml/well) were immobilized to the plate. After being washed, the plates were blocked for 40 minutes with 1×PBS with 10% Bovine serum Albumin and were subsequently incubated for 2 hours with serially diluted IgGs.

FcgR1 = target: T5, FcgR1 (human, UniProt P12314); test: FcγR binding ELISA, plate-bound human FcγRI soluble ectodomain, serially diluted IgG, Δabsorbance 450 nm; panel FcgR1
T5 construct: soluble ectodomain; also called human FcγRI soluble ectodomain (ELISA); FcγRI
T5 sequence (P12314 16-292 limits assumed): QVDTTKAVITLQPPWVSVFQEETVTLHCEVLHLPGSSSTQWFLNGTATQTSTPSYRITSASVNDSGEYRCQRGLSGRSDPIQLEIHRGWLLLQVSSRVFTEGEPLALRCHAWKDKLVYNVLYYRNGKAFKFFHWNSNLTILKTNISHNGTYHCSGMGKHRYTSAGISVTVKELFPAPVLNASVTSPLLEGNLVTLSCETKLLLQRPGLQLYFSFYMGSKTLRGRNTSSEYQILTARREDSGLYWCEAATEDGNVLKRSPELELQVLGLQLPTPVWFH
Experimental: as §1

[4] = target: T6, human FcγRIIIB soluble ectodomain (ELISA) (human, UniProt O75015 17-200, limits assumed); test: FcγR binding ELISA, plate-bound human FcγRIIIB soluble ectodomain, serially diluted IgG, Δabsorbance 450 nm; panel Fcg3B
T6 construct: extracellular domain
T6 sequence (O75015 17-200 limits assumed): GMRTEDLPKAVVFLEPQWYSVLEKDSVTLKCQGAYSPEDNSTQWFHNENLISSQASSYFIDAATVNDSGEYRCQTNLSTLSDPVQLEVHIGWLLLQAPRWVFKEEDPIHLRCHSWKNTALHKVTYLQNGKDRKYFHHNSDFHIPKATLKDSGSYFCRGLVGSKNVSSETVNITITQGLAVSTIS
Experimental: as §1

hFcγRIIB [5] = target: T2, hFcγRIIB; test: FcγR binding ELISA, plate-bound human FcγRIIB soluble ectodomain, serially diluted IgG, Δabsorbance 450 nm; panel Fcg2B
Experimental: as §1

B1: Avelumab Afucosylated Fc variant (antibody, human IgG1, lambda)
heavy: not shown
light: QSALTQPASVSGSPGQSITISCTGTSSDVGGYNYVSWYQQHPGKAPKLMIYDVSNRPSGVSNRFSGSKSGNTASLTISGLQAEDEADYYCSSYTSSSTRVFGTGTKVTVLGQPKANPTVTLFPPSSEELQANKATLVCLISDFYPGAVTVAWKADGSPVKAGVETTKPSKQSNNKYAASSYLSLTPEQWKSHRSYSCQVTHEGSTVEKTVAPTECS
modifications: afucosylated Fc glycan (N297, EU); fucose content of about 28%
notes: also called non-fucosylated Fc glycan
- Fold (KD(IgG1)/KD(Fc variant)) (hFcγRIIA R131): 1 fold
- Kd (hFcγRIIA R131): 1160 nM
- Fold (KD(IgG1)/KD(Fc variant)) (hFcγRIIB [1]): 1.1 fold
- Kd (hFcγRIIB [1]): 2800 nM
- Fold (KD(IgG1)/KD(Fc variant)) [2]: 11.6 fold
- Kd [2]: 578 nM
- EC50 (read off the curve) [3]: ~2 µg/mL
- binding result (FcgR1): binds

B2: Avelumab IgG1 (wild type human IgG1) (antibody)
heavy: not shown
light: QSALTQPASVSGSPGQSITISCTGTSSDVGGYNYVSWYQQHPGKAPKLMIYDVSNRPSGVSNRFSGSKSGNTASLTISGLQAEDEADYYCSSYTSSSTRVFGTGTKVTVLGQPKANPTVTLFPPSSEELQANKATLVCLISDFYPGAVTVAWKADGSPVKAGVETTKPSKQSNNKYAASSYLSLTPEQWKSHRSYSCQVTHEGSTVEKTVAPTECS
notes: Made recombinantly in Expi293 cells
- Fold (KD(IgG1)/KD(Fc variant)) (hFcγRIIA R131): 1 fold
- Kd (hFcγRIIA R131): 1160 nM
- Fold (KD(IgG1)/KD(Fc variant)) (hFcγRIIB [1]): 1 fold
- Kd (hFcγRIIB [1]): 3010 nM
- Fold (KD(IgG1)/KD(Fc variant)) [2]: 1 fold
- Kd [2]: 6700 nM
- binding result (FcgR1): binds

B3: Avelumab ALIE (A330L/I332E) (antibody, human IgG1, lambda)
heavy: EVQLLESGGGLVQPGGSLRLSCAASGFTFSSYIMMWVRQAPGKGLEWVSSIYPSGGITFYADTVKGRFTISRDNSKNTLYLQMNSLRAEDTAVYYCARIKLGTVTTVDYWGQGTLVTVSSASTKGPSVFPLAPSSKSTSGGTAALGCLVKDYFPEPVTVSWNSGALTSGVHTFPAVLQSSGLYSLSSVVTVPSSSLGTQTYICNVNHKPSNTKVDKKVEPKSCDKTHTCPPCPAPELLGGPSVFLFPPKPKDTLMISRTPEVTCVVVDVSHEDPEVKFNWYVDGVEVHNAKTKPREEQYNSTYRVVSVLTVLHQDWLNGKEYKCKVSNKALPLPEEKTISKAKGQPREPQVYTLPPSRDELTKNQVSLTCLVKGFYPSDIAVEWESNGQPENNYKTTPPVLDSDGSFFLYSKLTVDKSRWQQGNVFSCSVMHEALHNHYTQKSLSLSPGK
light: QSALTQPASVSGSPGQSITISCTGTSSDVGGYNYVSWYQQHPGKAPKLMIYDVSNRPSGVSNRFSGSKSGNTASLTISGLQAEDEADYYCSSYTSSSTRVFGTGTKVTVLGQPKANPTVTLFPPSSEELQANKATLVCLISDFYPGAVTVAWKADGSPVKAGVETTKPSKQSNNKYAASSYLSLTPEQWKSHRSYSCQVTHEGSTVEKTVAPTECS
- Fold (KD(IgG1)/KD(Fc variant)) (hFcγRIIA R131): 1.2 fold
- Kd (hFcγRIIA R131): 950 nM
- Fold (KD(IgG1)/KD(Fc variant)) (hFcγRIIB [1]): 1.1 fold
- Kd (hFcγRIIB [1]): 2800 nM
- Fold (KD(IgG1)/KD(Fc variant)) [2]: 5.4 fold

B4: Avelumab N297A (FcγR-binding null IgG1) (antibody, name in EU numbering)
heavy: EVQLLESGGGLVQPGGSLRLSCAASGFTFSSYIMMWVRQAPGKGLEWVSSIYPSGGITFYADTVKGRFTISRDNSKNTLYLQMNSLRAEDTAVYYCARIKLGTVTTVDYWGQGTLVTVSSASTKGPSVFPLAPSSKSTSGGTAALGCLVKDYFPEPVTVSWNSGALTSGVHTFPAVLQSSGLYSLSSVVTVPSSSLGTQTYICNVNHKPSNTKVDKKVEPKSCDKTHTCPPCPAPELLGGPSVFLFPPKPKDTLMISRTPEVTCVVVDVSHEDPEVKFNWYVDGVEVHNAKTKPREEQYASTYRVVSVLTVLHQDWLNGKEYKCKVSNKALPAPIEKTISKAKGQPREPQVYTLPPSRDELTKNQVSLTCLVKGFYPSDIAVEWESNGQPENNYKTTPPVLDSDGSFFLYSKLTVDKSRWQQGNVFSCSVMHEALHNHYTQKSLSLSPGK
light: QSALTQPASVSGSPGQSITISCTGTSSDVGGYNYVSWYQQHPGKAPKLMIYDVSNRPSGVSNRFSGSKSGNTASLTISGLQAEDEADYYCSSYTSSSTRVFGTGTKVTVLGQPKANPTVTLFPPSSEELQANKATLVCLISDFYPGAVTVAWKADGSPVKAGVETTKPSKQSNNKYAASSYLSLTPEQWKSHRSYSCQVTHEGSTVEKTVAPTECS
notes: also called Fc-silent (N297A) variant
- binding result (hFcγRIIA R131): no binding
- binding result [2]: no binding
- binding result [4]: no binding (tested: log 2 (100 µg/ml))
- binding result [3]: no binding (tested: log 1.2 (about 16 µg/ml))
- binding result (hFcγRIIB [5]): no binding (tested: log 2 (100 µg/ml))
- binding result (FcgR1): binds

B5: Avelumab G236A (antibody, human IgG1, lambda)
heavy: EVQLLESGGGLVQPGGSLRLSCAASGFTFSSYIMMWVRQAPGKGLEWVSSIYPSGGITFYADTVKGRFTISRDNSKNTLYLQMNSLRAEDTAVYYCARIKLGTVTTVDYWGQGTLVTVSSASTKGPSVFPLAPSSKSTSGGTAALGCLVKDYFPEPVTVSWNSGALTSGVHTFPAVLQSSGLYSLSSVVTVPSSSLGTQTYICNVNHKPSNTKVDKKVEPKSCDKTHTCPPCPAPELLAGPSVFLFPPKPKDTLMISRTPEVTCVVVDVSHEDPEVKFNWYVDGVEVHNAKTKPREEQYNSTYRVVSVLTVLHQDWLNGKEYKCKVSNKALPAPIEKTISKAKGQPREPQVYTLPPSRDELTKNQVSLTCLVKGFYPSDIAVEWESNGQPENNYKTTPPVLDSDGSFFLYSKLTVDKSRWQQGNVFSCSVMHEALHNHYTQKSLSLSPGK
light: QSALTQPASVSGSPGQSITISCTGTSSDVGGYNYVSWYQQHPGKAPKLMIYDVSNRPSGVSNRFSGSKSGNTASLTISGLQAEDEADYYCSSYTSSSTRVFGTGTKVTVLGQPKANPTVTLFPPSSEELQANKATLVCLISDFYPGAVTVAWKADGSPVKAGVETTKPSKQSNNKYAASSYLSLTPEQWKSHRSYSCQVTHEGSTVEKTVAPTECS
- Fold (KD(IgG1)/KD(Fc variant)) (hFcγRIIA R131): 9.3 fold
- Kd (hFcγRIIA R131): 120 nM
- Fold (KD(IgG1)/KD(Fc variant)) (hFcγRIIB [1]): 0.7 fold
- Kd (hFcγRIIB [1]): 4380 nM
- Fold (KD(IgG1)/KD(Fc variant)) [2]: 1.7 fold
- Kd [2]: 3900 nM

B6: Avelumab GASDALIE (G236A/S239D/A330L/I332E) (antibody, human IgG1, lambda)
heavy: EVQLLESGGGLVQPGGSLRLSCAASGFTFSSYIMMWVRQAPGKGLEWVSSIYPSGGITFYADTVKGRFTISRDNSKNTLYLQMNSLRAEDTAVYYCARIKLGTVTTVDYWGQGTLVTVSSASTKGPSVFPLAPSSKSTSGGTAALGCLVKDYFPEPVTVSWNSGALTSGVHTFPAVLQSSGLYSLSSVVTVPSSSLGTQTYICNVNHKPSNTKVDKKVEPKSCDKTHTCPPCPAPELLAGPDVFLFPPKPKDTLMISRTPEVTCVVVDVSHEDPEVKFNWYVDGVEVHNAKTKPREEQYNSTYRVVSVLTVLHQDWLNGKEYKCKVSNKALPLPEEKTISKAKGQPREPQVYTLPPSRDELTKNQVSLTCLVKGFYPSDIAVEWESNGQPENNYKTTPPVLDSDGSFFLYSKLTVDKSRWQQGNVFSCSVMHEALHNHYTQKSLSLSPGK
light: QSALTQPASVSGSPGQSITISCTGTSSDVGGYNYVSWYQQHPGKAPKLMIYDVSNRPSGVSNRFSGSKSGNTASLTISGLQAEDEADYYCSSYTSSSTRVFGTGTKVTVLGQPKANPTVTLFPPSSEELQANKATLVCLISDFYPGAVTVAWKADGSPVKAGVETTKPSKQSNNKYAASSYLSLTPEQWKSHRSYSCQVTHEGSTVEKTVAPTECS
notes: also called GASDLIE
- Fold (KD(IgG1)/KD(Fc variant)) (hFcγRIIA R131): 24.5 fold
- Kd (hFcγRIIA R131): 47 nM
- Fold (KD(IgG1)/KD(Fc variant)) (hFcγRIIB [1]): 14 fold
- Kd (hFcγRIIB [1]): 230 nM
- Fold (KD(IgG1)/KD(Fc variant)) [2]: 29.5 fold
- Kd [2]: 227 nM
